Laboratory results published in patent US20100278837A1, “Compositions And Methods For Reducing Cancer And Inflammation” (The Regents of the University of California, priority 2009, published 2010).

B2: murine integrin α4Y991A β1 of CD11b+ myeloid cells from α4Y991A knockin mice (receptor, mouse)
chain 1: YNLDPENALLYQGPSGTLFGYSVVLHSHGSKRWLIVGAPTASWLSNASVVNPGAIYRCGIRKNPNQTCEQLQSGSPSGEPCGKTCLEERDNQWLGVTLSRQPGENGSIVTCGHRWKNIFYMKSDNKLPTGICYVMPSDLRTELSKRMAPCYKDYTRKFGENFASCQAGISSFYTQDLIVMGAPGSSYWTGTVFVYNITTNQYKAFVDRQNQVKFGSYLGYSVGAGHFRSPHTTEVVGGAPQHEQIGKAYIFSIDENELNIVYEMKGKKLGSYFGASVCAVDLNADGFSDLLVGAPMQSTIREEGRVFVYINSGMGAVMVEMERVLVGSDKYAARFGESIANLGDIDNDGFEDIAIGAPQEDDLRGAVYIYNGRVDGISSTYSQRIEGQQISKSLRMFGQSISGQIDADNNGYVDVAVGAFQSDSAVLLRTRPVVIVEASLSHPESVNRTKFDCTENGLPSVCMHLTLCFSYKGKEVPGYIVLFYNVSLDVHRKAESPSRFYFFSNGTSDVITGSIRVSSSGEKCRTHQAFMRKDVRDILTPIHVEATYHLGHHVITKRNTEEFPPLQPILQQKKEKDVIRKMINFARFCAYENCSADLQVSAKVGFLKPYENKTYLAVGSMKTIMLNVSLFNAGDDAYETTLNVQLPTGLYFIKILDLEEKQINCEVTESSGIVKLACSLGYIYVDRLSRIDISFLLDVSSLSRAHEDLSISVHASCENEGELDQVRDNRVTLTIPLRYEVMLTVHGLVNPTSFVYGSSEENEPETCMAEKLNLTFHVINTGISMAPNVSVKIMVPNSFLPQDDKLFNVLDVQTTTGQCHFKHYGRECTFAQQKGIAGTLTDIVKFLSKTDKRLLYCMKADQHCLDFLCNFGKMESGKEASVHIQLEGRPSILEMDETSSLKFEIKATAFPEPHPKVIELNKDENVAHVFLEGLHHQRPKRHFTIIIITISLLLGLIVLLLISCVMWKAGFFKRQYKSILQEENRRDSWSAVNSKSNDD
chain 2: QTDKNRCLKANAKSCGECIQAGPNCGWCTNTTFLQEGMPTSARCDDLEALKKKGCQPSDIENPRGSQTIKKNKNVTNRSKGMAEKLRPEDITQIQPQQLLLKLRSGEPQKFTLKFKRAEDYPIDLYYLMDLSYSMKDDLENVKSLGTDLMNEMRRITSDFRIGFGSFVEKTVMPYISTTPAKLRNPCTSEQNCTSPFSYKNVLSLTDRGEFFNELVGQQRISGNLDSPEGGFDAIMQVAVCGSLIGWRNVTRLLVFSTDAGFHFAGDGKLGGIVLPNDGQCHLENNVYTMSHYYDYPSIAHLVQKLSENNIQTIFAVTEEFQPVYKELKNLIPKSAVGTLSGNSSNVIQLIIDAYNSLSSEVILENSKLPDGVTINYKSYCKNGVNGTGENGRKCSNISIGDEVQFEISITANKCPNKESETIKIKPLGFTEEVEVVLQFICKCNCQSHGIPASPKCHEGNGTFECGACRCNEGRVGRHCECSTDEVNSEDMDAYCRKENSSEICSNNGECVCGQCVCRKRDNTNEIYSGKFCECDNFNCDRSNGLICGGNGVCRCRVCECYPNYTGSACDCSLDTGPCLASNGQICNGRGICECGACKCTDPKFQGPTCETCQTCLGVCAEHKECVQCRAFNKGEKKDTCAQECSHFNLTKVESREKLPQPVQVDPVTHCKEKDIDDCWFYFTYSVNGNNEAIVHVVETPDCPTGPDIIPIVAGVVAGIVLIGLALLLIWKLLMIIHDRREFAKFEKEKMNAKWDTGENPIYKSAVTTVVNPKYEGK
notes: whole, on cells; It may be mature-chain numbering and may not match the precursor entry; also called α4YA; YA

Assays:
[1] = system: CD11b+ cells adhesion to endothelium; assay: Adhesion of CD11b+ cells to endothelium (Example 1 adhesion assay); assay type: cell-based, murine; details: SDF-1α, TCM or IL-1β (and other chemoattractant) induced
Description: TCM was prepared from serum-free media cultured on LLC cells for 18 h and filtered through 0.22 μm filters. 10^5 calcein-AM labelled human or murine CD11b+ cells in TCM or DMEM containing 200 ng/ml SDF-1α, IL-1β, IL-6, IL-8 or VEGF-A (R&D Systems) were incubated on HUVEC monolayers or on plastic plates coated with 5 μg/ml recombinant soluble VCAM-1 (R&D Systems). Adherent cells were quantified using a fluorescence activated plate reader (GeniosPro, TECAN). In some assays, cells were also incubated in 25 μg/ml anti-integrin α4β1 (PS2 for murine cells and HP2/1 for human cells, gifts from Biogen-Idec) and isotype control antibodies (IgG2bk for murine cells and IgG1 for human cells). In some studies, cells were incubated in 10 μM pan PI3K inhibitors […] or TG020, in PI3kinase α inhibitor PI3K75, PI3kinase γ/δ inhibitor TG115 and an inert control.

integrin α4 = assay: Integrin α4 clustering in CD11b+ cells; assay type: cell-based; details: SDF-1α or IL-1β induced
Description: Activation of human CD29 (integrin β1 chain) in cytokine stimulated human CD11b+ cells was quantified by flow cytometry using HUTS-21 antibodies (BD Bioscience). Total β1 integrin levels were assessed using P4C10 antibodies (Chemicon). 2.5×10^6 freshly isolated human myeloid cells/ml in culture medium containing 5% FBS and 0.5% NaN3 were incubated in 10 μg/ml normal human immunoglobulin (12000C, Caltag) for 45 min on ice, then in 2 μg/ml SDF-1α, IL-1β, IL-6 or 1 mM Mn2+ plus 2.5 μg HUTS21, P4C10, or IgG2 control for 10 min at 37° C. followed by Alexa 488 goat-anti mouse antibodies for 20 min on ice. Expression levels of murine integrin α4 on bone marrow derived cells were determined by flow cytometry for PE-conjugated R1/2 (rat anti-CD49d antibody, eBioscience). To induce integrin α4 activation on human myeloid cells or murine WT and α4Y991A myeloid, purified CD11b+ cells were incubated with polystyrene microspheres (9.0 μm diameter, Bangs Laboratories) coated with TCM, 2 μg/ml SDF-1α or IL-1β overnight at 4° C. cells as previously described by Grabovsky et al., 2000. […] Samples were analyzed by Nikon CS1 spectral confocal on a Nikon TE2000E inverted microscopy. Images were captured using EZ-C13.00 imaging software and analyzed using Metamorph software.

[2] = molecular target: T1, murine integrin α4β1 (wildtype) of CD11b+ myeloid cells (mouse, UniProt Q00651 41-1039; P09055 21-798); assay: flow cytometry, VCAM-1/Fc on murine CD11b+ cells (FIG. 27e)
T1 construct: whole, on cells; In the co-immunoprecipitations it was precipitated from CHAPS lysates of bone marrow cells with PS/2; also called VLA-4; VLA4
Description: (§1) 5×10⁵ CD11b+ cells isolated from WT, α4Y991A, or PI3-kinase γ−/− mice (naïve or tumour-bearing) were incubated with 200 ng/ml IL-1β, SDF-1α, IL-6, TNFα, VEGF-A or medium together with 1 mg/ml mouseVCAM-1/humanFc fusion protein (R&D Systems) for 3 min. Cells were washed twice and incubated with donkey anti-human-FC-PE antibody (Jackson Immunoresearch) then analysed by FACs Calibur. Mean fluorescence intensity of treated cells was compared to that of unstimulated cells (basal). In other studies, cells from WT mice were untreated or were treated with 1 μM PI3-kinase α, β, or γ inhibitors for 30 min at 37° C. In some experiments GFP/RapV12 or GFP/RasV12 transfected CD11b+ cells were used. In this case, increased mean fluorescence intensity was measured for only GFP-positive cells.

[3] = molecular target: B2; assay: flow cytometry of VCAM-1/Fc on CD11b+ cells (FIG. 27e)
Description: as §1

[4] = molecular target: T2, talin (murine, endogenous in bone marrow derived myeloid cells) (mouse, UniProt P26039 1-2541); assay: co-immunoprecipitation with PS/2, immunoblot (FIG. 3d)
T2 construct: Detected by immunoblot with anti-talin clone TD77
Description: BM monocytic cells from WT or α4Y991A mice were isolated as described above and treated with either DMEM or TCM for 30 min at 37° C. Cells were rinsed with cold PBS and lysed in Tris-buffered saline containing 1% CHAPS, 20 mM β-glycerophosphate, 1 mM Na₃VO₄, 5 mM NaF, 100 ng/ml microcystin-LR, and protease inhibitor cocktail. Clarified cell lysates were immunoprecipitated as follows: 1 mg total protein was precleared with 10 μl protein G-conjugated Dynabeads (Invitrogen) for 1 hr with rotation. Cleared lysates were incubated with 5 μg of rat anti-α4β1 (PS/2) antibody overnight, followed by adding 25 μl of protein G-conjugated Dynabeads for 3 h with rotation. Beads were washed three times with 1 ml cold PBS containing protease inhibitor cocktail. Protein precipitates were electrophoresed on 10% SDS-PAGE gels and immunoblotted with anti-integrin α4 (C-20, Santa Cruz Biotechnology), anti-talin (Clone TD77, Chemicon) or anti-paxillin (H-114, Santa Cruz Biotechnology) antibodies. Immune complexes were visualized using an enhanced chemiluminescence detection kit (Pierce).
BM cells (comprised of 80% CD11b+Gr1+ cells) from WT or α4Y991A mice were isolated as described above and treated with either DMEM or TCM for 30 min at 37° C. […]

T2 sequence (P26039 whole entry): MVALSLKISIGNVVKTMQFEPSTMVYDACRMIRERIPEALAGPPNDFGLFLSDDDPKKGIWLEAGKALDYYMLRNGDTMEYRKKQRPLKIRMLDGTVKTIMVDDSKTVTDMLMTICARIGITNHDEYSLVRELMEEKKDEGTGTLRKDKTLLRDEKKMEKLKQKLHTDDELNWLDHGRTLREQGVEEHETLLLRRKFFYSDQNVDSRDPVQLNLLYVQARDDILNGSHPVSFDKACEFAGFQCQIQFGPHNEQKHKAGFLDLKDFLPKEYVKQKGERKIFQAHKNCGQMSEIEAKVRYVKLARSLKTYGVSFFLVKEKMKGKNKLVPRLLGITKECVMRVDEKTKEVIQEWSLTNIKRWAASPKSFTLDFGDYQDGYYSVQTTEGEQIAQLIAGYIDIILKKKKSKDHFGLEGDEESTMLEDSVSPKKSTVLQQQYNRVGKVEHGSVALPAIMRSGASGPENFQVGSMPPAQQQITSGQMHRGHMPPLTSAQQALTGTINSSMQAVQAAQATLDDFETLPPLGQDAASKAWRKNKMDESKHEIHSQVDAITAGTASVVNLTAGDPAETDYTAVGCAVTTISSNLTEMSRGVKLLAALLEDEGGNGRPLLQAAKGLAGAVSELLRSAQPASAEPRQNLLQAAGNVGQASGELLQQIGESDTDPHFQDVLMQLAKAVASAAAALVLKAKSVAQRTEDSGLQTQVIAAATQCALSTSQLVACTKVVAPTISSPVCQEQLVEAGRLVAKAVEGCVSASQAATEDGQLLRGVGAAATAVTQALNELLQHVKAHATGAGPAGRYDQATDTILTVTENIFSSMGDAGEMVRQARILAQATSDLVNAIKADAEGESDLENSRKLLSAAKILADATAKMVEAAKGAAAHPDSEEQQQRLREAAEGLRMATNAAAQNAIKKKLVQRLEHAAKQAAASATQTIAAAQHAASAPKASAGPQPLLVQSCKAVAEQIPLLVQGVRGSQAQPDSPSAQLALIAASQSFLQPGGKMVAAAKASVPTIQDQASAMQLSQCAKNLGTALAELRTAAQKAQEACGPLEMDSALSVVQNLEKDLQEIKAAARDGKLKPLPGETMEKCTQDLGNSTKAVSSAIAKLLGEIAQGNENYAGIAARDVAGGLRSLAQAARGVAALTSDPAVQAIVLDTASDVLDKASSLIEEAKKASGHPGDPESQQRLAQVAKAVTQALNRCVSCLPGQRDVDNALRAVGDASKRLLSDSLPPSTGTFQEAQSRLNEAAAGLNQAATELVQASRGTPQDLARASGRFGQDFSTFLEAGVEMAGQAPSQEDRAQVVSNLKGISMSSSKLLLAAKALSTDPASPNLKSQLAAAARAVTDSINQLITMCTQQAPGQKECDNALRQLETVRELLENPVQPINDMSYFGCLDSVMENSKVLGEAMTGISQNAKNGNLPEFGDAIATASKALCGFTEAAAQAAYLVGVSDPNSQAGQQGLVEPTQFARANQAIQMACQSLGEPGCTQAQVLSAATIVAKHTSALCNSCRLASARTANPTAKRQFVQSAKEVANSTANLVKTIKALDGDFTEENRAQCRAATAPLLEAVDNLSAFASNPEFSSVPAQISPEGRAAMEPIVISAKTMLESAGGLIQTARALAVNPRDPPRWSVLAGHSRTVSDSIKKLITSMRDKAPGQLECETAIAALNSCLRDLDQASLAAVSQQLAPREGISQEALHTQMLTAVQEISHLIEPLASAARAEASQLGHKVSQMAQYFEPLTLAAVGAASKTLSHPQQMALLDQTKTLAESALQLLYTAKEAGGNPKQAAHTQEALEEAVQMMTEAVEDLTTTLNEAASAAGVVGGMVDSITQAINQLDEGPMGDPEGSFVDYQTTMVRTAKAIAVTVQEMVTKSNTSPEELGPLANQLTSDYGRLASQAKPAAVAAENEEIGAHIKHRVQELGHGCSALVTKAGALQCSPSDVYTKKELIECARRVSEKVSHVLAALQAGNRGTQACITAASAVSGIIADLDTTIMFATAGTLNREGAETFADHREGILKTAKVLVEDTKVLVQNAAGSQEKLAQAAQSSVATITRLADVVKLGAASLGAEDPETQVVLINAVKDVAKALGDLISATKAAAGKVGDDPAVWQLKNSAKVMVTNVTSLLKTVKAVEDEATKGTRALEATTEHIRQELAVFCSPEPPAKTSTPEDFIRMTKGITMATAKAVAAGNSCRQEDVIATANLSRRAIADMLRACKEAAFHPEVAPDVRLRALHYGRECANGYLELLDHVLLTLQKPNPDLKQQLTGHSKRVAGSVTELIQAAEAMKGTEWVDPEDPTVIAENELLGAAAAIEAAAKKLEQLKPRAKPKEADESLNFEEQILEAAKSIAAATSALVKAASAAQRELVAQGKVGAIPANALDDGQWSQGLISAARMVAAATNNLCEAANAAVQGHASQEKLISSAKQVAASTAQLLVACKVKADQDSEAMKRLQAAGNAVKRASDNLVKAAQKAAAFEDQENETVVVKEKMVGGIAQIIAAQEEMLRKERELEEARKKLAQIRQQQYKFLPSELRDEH

pertussis toxin
CD11b+ cell adhesion to endothelium [1]: inhibited SDF-1α, and TCM-induced but not IL-1β induced adhesion | integrin α4 clustering (integrin α4): blocked SDF-1α-induced integrin clustering

B1: mouseVCAM-1/humanFc fusion protein (R&D Systems) (Fc fusion, UniProt P29533 25-698, looked up)
chain: FKIEISPEYKTIAQIGDSMALTCSTTGCESPLFSWRTQIDSPLNAKVRTEGSKSVLTMEPVSFENEHSYLCTATCGSGKLERSIHVDIYSFPKDPEIQFSGPLEVGKPVTVKCLAPDIYPVYRLEIDLFKGDQLMNRQEFSSEEMTKSLETKSLEVTFTPVIEDIGKALVCRAKLHIDQIDSTLKERETVKELQVYISPRNTTISVHPSTRLQEGGAVTMTCSSEGLPAPEIFWGRKLDNEVLQLLSGNATLTLIAMRMEDSGVYVCEGVNLIGRDKAEVELVVQEKPFIVDISPGSQVAAQVGDSVVLTCAAIGCDSPSFSWRTQTDSPLNGVVRNEGAKSTLVLSSVGFEDEHSYLCAVTCLQRTLEKRTQVEVYSFPEDPVIKMSGPLVHGRPVTVNCTVPNVYPFDHLEIELLKGETTLMKKYFLEEMGIKSLETKILETTFIPTIEDTGKSLVCLARLHSGEMESEPKQRQSVQPLYVNVAPKETTIWVSPSPILEEGSPVNLTCSSDGIPAPKILWSRQLNNGELQPLSENTTLTFMSTKRDDSGIYVCEGINEAGISRKSVELIIQVSPKDIQLTVFPSKSVKEGDTVIISCTCGNVPETWIILKKKAKTGDMVLKSVDGSYTIRQAQLQDAGIYECESKTEVGSQLRSLTLDVKGKEHNKDYFSPE
notes: Bought reagent; Detected with donkey anti-human-FC-PE; also called VCAM-1/Fc; VCAM-1/FC; not shown: human Fc
binding result [2]: binds | binding result [3]: no binding

B2
binding result [4]: no binding
